Results reported in PMC9258321 (2022).
Read-outs that look alike come from different tables or passages of the source. Ends that are not written are not given here.

Assays:
Kelch domain of Keap1 [1] = test: SPR
Kelch domain of Keap1 [2] = test: SPR; remark: listed apart in the source

Chain of Kelch domain of Keap1 (chain, as listed by the source): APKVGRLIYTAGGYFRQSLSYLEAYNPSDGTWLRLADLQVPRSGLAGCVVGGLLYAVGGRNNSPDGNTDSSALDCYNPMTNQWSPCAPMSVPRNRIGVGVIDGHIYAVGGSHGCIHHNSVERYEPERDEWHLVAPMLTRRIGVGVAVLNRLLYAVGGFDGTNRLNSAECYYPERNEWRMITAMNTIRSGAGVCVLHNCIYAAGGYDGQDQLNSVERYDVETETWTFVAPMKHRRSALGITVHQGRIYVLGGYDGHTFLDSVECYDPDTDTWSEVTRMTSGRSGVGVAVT

Kd (Kelch domain of Keap1 [1]) | Kd (Kelch domain of Keap1 [2]) | Binder
415 nM | – | GCPPCASGCSPETGEFCWREDDCPPC (disulfide (positions not given here); also: oxidized (disulfides), pairing of this isomer not given here) [drp3, minor oxidized product]
– | 277 nM | GCPPCASGCSPETGEFCWREDDCPPC (disulfide (positions not given here); not fully specified) [drp3-a]
